Assay [1] deals with T1, Botulinum neurotoxin type B, subtype B4 (BoNT/B4) (Clostridium botulinum). The assay is described as follows: flow cytometry; yeast-displayed scFv, soluble toxin. Background: In flow cytometry, cells or beads pass a laser one at a time.
The target in assay [2] is T2, Botulinum neurotoxin type B, subtype B3 (BoNT/B3) (Clostridium botulinum). The description is as above.
For assay [3], the target named is T1, Botulinum neurotoxin type B, subtype B4 …. Put plainly: KinExA flow fluorimetry; IgG in solution. (In general: In KinExA the mixture passes briefly over coated beads that capture the unbound partner.)
Assay [4] deals with T2, Botulinum neurotoxin type B, subtype B3 …. The assay is described as follows: KinExA flow fluorimetry; IgG in solution.

B1: 4B6 scFv (yeast displayed) (scFv)
chain: QVQLVQSGAEVKKPGESLVISCKASGDKDTFTSFWIAWVRQMPGKGLEWMGIIYAGDSDTRYSPSFQGHVNISVDRSTNTAYLQWSSLKASDTAMYYCARHDSRYKYFYFGMDVWGQGTTVTVSSGGGGSGGGGSGGGGSDVVMTQSPSSLSASVGDRITITCQAGQDISNFLNWYQQKPGKAPKLLIRDASNLETGVPSRFSGGGSGTHFTFTISSLHPEDIATYFCQQYDNLPYTFGQGTKLEIK
With B1, the dissociation constant Kd (in general, the concentration at which binding is half-saturated) in assay [1] turned out to be 1.61 nM; in assay [2] it was 1.08 nM.

B2: 4B7 scFv (yeast displayed) (scFv)
chain: QVQLQQSGPGLVKPSQTLSLTCSVSGGSINSDGSYWSWVRQHPGKGLEWIGYIYYSGTTYFNPSLKSRLTMSVDTSKNQFSLKMTSVTAADTAVYYCARMSGSRSYSQYYFDSWGQGTLVTVSSGGGGSGGGGSGGGGSDIQMTQSPSSLSASVGDRVTITCRASQSISSYLNWYQQKPGTAPKLLISDASTLQSGVPSRFSGSGSGTEFTLTISNLQPEDFATYYCQQFNSYVWTFGQGTKLEIK
Regarding B2, the values for the Kd in assay [1] and in assay [2] were 10 nM and 25.1 nM, respectively.

B3: 4B19.1 IgG (antibody, V domains shown)
VH: QVQLVQSGAEVKKPGASVNVSCKASGYTFTGYYIYWVRQAPGQGLEWMGWINPNSGVTKYAQKFQGRVTMTIDTSTNTAYMELNRLRADDTAVYYCAREWTQLWSPYDYWGQGTTVTVSS
VL: DIVLTQSPSTLSASVGDRVTISCRASRSIGWYLNWYQQRPGKAPKLLIYAASSLHNGVPSRFSGSGSGTEFTLTISSLQPDDFATYYCQQAFGFPRTFGQGTKVEIKR
On to B3, for which the Kd in assay [3] was found to be 0.194 nM; in assay [4], 0.156 nM.

B4: 1B14 scFv (yeast displayed) (scFv)
chain: EVQLVESGGGLVQPGGSLRLSCAASGFTFSSYSMNWVRQAPGKGLEWVAVIWYDGSNKYYADSVKGRFTISRDNSKNTLYLQMNSLRAEDTAVYYCARSSIVGAPYGMDVWGQGTTVTVSSGGGGSGGGGSGGGGSEIVLTQSPSSLSAAVGDRVTITCRASQNIYSYLNWYQQKLGKAPNLLIYAVFSLQSGVPSRFSGSGYGTDFTLTISSLQPEDFATYYCQQSSSSPLTFGGGTKVEIK
B4 yielded a Kd in assay [1] of 2.12 nM.
